# Legend:
# [1] = system: recombinant His6-RFLAT-1 (C-terminal portion of RFLAT-1, amino acids 59-288)
# [2] = biological target: RFLAT-1 full length (homo sapien) (UniProt Q9Y2Y9); assay: cell_activity; conditions: Jurkat T cells
# Chain of RFLAT-1 full length (homo sapien) (Q9Y2Y9 other isoform, or with tags, fused parts or gaps): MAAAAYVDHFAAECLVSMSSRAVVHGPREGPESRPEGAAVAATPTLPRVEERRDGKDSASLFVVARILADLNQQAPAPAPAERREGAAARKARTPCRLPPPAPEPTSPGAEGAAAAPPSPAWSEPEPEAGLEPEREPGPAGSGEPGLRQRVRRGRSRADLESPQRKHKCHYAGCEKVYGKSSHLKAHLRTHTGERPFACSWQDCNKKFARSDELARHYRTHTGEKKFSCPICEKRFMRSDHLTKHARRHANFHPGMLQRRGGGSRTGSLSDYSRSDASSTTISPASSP
# Chain of recombinant His6-RFLAT-1 (C-terminal portion of RFLAT-1, amino acids 59-288) (chain, as listed by the source): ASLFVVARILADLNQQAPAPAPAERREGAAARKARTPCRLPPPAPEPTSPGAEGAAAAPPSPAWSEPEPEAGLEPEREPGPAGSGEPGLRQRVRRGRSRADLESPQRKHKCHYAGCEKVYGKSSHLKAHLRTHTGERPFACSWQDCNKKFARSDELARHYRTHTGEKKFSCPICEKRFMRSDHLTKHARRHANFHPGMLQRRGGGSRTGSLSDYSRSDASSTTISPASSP
substance,measurement,setting,value
NILK,phosphorylation of recombinant RFLAT-1 by immunoprecipitated kinase,[1],the immunoprecipitated NILK from activated PBLs phosphorylates recombinant RFLAT-1
RANTES promoter pGL2-R-luciferase,activity (fold induction),[2]; about 5 fold in NIH3T3,10
three A/B sites luciferase reporter,activity (fold induction),[2]; similar degree of induction,10

# Source: patent US6376240
